Assay [1] has as its target Bovine collagen type IV (bovine) (UniProt Q7SIB2). Put plainly: ELISA. (In an ELISA, binding on a coated surface is turned into a signal by an enzyme label.)
The target in assay [2] is Pepsinized collagen type II (UniProt P02459). Put plainly: ELISA.

The source of these data is PMC3431625.

In general, Kd refers to a measure of binding affinity in units of concentration. Low values mean tighter binding, high ones weaker binding.

Sequence of Bovine collagen type IV (bovine) (Q7SIB2 28-1669, chain 1 of 2): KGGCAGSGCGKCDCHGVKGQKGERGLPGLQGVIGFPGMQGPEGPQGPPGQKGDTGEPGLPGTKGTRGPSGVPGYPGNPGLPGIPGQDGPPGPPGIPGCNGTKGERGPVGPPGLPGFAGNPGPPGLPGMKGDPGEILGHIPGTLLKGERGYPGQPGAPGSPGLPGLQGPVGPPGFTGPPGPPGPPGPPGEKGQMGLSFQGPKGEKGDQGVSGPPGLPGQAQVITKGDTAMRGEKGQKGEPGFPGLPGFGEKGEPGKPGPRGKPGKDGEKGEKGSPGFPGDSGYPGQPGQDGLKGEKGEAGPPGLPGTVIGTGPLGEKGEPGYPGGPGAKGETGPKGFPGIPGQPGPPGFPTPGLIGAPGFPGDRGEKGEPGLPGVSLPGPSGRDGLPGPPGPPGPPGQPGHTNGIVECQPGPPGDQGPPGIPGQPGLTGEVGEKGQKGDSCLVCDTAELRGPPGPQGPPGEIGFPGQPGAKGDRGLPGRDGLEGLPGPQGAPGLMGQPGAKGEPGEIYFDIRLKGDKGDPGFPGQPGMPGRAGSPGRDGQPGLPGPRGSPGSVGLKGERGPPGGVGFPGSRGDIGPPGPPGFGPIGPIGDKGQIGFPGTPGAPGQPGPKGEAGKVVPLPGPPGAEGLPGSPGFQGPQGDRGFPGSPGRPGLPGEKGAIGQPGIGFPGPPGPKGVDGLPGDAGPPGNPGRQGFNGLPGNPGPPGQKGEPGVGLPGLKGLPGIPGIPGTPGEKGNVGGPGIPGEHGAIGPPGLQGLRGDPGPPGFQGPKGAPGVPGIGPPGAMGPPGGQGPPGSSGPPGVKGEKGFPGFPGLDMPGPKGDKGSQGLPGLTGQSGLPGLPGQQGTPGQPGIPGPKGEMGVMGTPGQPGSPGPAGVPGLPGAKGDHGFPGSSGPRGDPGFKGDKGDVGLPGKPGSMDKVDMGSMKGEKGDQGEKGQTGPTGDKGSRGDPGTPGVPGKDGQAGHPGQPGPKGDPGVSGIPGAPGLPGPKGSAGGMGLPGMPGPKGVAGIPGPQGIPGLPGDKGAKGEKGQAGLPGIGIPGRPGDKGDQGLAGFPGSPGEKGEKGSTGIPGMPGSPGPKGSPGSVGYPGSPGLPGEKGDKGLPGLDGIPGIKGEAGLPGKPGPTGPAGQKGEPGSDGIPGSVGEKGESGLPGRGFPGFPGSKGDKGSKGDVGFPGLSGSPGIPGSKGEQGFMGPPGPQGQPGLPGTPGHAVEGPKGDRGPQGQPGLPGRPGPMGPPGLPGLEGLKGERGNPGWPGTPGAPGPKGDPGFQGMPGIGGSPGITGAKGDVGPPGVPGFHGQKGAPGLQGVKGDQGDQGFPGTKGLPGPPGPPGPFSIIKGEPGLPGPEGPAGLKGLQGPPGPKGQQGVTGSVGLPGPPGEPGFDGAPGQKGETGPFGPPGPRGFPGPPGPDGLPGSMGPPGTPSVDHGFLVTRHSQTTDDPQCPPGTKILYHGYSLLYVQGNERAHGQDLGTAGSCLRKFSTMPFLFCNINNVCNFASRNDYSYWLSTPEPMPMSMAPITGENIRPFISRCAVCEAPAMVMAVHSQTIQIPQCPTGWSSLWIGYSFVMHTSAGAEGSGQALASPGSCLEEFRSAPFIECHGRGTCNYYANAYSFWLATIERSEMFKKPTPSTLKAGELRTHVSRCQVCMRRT
Sequence of Bovine collagen type IV (bovine) (Q7SIB3 whole entry, chain 2 of 2, further chain): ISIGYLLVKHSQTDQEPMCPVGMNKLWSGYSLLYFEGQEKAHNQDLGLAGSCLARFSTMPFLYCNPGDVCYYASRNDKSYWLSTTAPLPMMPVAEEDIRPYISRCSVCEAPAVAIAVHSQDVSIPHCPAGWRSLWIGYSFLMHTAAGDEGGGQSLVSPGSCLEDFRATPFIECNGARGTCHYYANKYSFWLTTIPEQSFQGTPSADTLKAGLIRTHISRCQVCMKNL
Sequence of Pepsinized collagen type II (P02459 26-1487): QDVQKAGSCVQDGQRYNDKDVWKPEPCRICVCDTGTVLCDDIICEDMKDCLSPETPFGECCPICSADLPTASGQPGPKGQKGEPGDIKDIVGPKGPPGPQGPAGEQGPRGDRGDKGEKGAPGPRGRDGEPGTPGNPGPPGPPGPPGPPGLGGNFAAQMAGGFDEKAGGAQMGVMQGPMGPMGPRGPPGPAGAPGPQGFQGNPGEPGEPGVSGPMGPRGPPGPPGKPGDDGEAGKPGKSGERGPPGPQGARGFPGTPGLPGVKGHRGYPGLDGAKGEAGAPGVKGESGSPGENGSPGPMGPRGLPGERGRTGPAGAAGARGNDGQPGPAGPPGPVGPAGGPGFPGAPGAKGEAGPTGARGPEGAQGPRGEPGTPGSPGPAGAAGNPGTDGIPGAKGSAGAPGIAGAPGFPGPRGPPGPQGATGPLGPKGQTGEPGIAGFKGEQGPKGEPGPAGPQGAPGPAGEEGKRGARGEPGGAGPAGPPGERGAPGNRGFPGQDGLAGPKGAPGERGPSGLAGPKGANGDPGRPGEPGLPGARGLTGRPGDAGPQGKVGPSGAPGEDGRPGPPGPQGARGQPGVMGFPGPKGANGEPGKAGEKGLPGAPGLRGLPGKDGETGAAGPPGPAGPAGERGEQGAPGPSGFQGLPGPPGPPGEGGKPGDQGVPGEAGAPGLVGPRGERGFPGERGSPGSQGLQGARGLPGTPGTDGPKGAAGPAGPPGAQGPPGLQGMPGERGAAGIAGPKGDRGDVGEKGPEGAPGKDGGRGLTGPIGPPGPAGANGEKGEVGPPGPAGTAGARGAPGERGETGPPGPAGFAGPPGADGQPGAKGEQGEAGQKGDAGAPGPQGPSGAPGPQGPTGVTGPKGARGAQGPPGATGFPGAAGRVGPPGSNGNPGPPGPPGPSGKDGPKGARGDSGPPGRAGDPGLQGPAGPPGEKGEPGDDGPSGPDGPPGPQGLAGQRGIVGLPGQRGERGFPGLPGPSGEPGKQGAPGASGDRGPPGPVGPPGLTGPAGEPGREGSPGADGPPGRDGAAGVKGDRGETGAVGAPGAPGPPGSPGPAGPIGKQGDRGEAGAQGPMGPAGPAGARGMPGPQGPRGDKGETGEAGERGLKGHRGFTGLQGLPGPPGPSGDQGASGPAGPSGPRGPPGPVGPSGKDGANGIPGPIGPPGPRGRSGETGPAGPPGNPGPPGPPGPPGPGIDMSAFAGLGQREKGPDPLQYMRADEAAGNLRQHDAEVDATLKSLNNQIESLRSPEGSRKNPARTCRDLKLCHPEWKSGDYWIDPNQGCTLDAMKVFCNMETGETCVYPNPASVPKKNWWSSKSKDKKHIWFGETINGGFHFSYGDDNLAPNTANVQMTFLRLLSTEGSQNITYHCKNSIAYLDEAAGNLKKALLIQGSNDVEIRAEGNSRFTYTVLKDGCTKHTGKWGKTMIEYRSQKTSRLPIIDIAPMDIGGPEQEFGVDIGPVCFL

B1: Recombinant bovine opticin (natural protein)
chain: ASLSEEREGDPYAILHLGDYVLSLDNYDEVIDPSNYDELIDYGDQLPQVKGTSLASLTRTRFTQSTEAARTLPSNPTTARPPTLGLLAAPANHGLPTCLICVCLGSSVYCDDADLENIPPLPQTTAYLYARFNRISHIRAGDFKGLTKLKRIDLSGNSISSIDDKALRLLPALRDLILPENKLVALPTLPTSIEVLDVRMNRLQSSGIQPEAFRALEKLQFLYLADNLLDAIPPSLPLSLRSLHLQNNMIETMQRDAFCDAEEHRHTRRPLEDIRLDGNPINLSLFPSAYFCLPRLPTGRFV
For B1, the results for the Kd in assay [1] and in assay [2] were 500 nM and 40 nM, respectively.
